± gives the uncertainty stated by the source.
Experiment: protein stability index of a GFP-peptide fusion (yeast GPS) (PSI 1-4); higher = more stable; sorted into four equal gates, so the index is relative within each strain
Procedure, shortened: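 Each library plasmid carries Cherry plus GFP with a tiled 17-residue yeast protein peptide fused downstream, and the pooled library was carried in yeast. Mid-log cultures in leucine-free medium were sorted into four equal gates by GFP/Cherry ratio. Reads from Illumina sequencing of PCR-amplified plasmids from each gate were assigned to strains by barcodes. Per peptide, the protein stability index was computed as the summed products of gate read frequency and gate number.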

Sequence | protein stability index (doa10∆) | protein stability index (pdr5∆) | protein stability index (san1∆) | protein stability index (ubr1∆)
KVFDCGDNIVMSANGFA [PRE7] | 2.88 ± 0.24 | 2.92 ± 0.12 | 2.88 ± 0.11 | 2.97 ± 0.15
KVFVPPKSKSLPNEMSQ [RPO31] | 3.1 ± 0.13 | 3.14 ± 0.12 | 3.09 ± 0.16 | 2.87 ± 0.13
KVGAEMMMQQQLKNVQL [MED2] | 2.54 ± 0.11 | 2.6 ± 0.085 | 2.96 ± 0.07 | 2.66 ± 0.085
KVGIWPYFDYIFNDILA [YJL039C/NUP192] | 1.67 ± 0.11 | 1.96 ± 0.071 | 1.75 ± 0.17 | 1.43 ± 0.061
KVKKPLKYLSVEEVIKL [PRE7] | 2.54 ± 0.084 | 2.63 ± 0.054 | 2.75 ± 0.083 | 2.23 ± 0.067
KVLINDQLSTISMILRN [SWI1] | 2.28 ± 0.047 | 2.79 ± 0.062 | 2.17 ± 0.07 | 2.68 ± 0.042
KVLKSGSGVDSSKLQLT [RRP42] | 2.94 ± 0.14 | 2.94 ± 0.1 | 3.16 ± 0.074 | 3.29 ± 0.1
KVLQLLRLTRINSGTFV [RPL7A] | 1.8 ± 0.097 | 1.62 ± 0.093 | 1.2 ± 0.17 | 1.07 ± 0.065
KVSAREKSAYKFFHNGM [FAS2] | 3.5 ± 0.14 | 3.39 ± 0.14 | 3.35 ± 0.099 | 3.54 ± 0.13
KVSSAEYYAKKRAFTKK [RPL16A] | 3 ± 0.098 | 3.32 ± 0.099 | 2.98 ± 0.092 | 3.36 ± 0.082
KVVKTPGGILRAQHVKK [RPL34A] | 2.76 ± 0.074 | 2.83 ± 0.077 | 2.9 ± 0.064 | 2.71 ± 0.063
KWPEYVRVQRQKKILSI [RPL8A] | 1.2 ± 0.06 | 1.5 ± 0.055 | 1.15 ± 0.098 | 1.23 ± 0.038
KWQTLIEANVTVKTSDD [RPS1A] | 1.42 ± 0.05 | 1.62 ± 0.044 | 1.61 ± 0.078 | 1.67 ± 0.037
KYAQDGAGIERELARIK [RPL3] | 3.54 ± 0.2 | 3.46 ± 0.16 | – | –
KYIGEGSRMVRELFVMA [RPT6] | 2.24 ± 0.063 | 2.11 ± 0.058 | 2.81 ± 0.082 | 1.89 ± 0.07
KYIVKASSGPRYIVGVR [RPT4] | 1.87 ± 0.096 | 2.66 ± 0.13 | 3.4 ± 0.089 | 1.89 ± 0.075
KYMVKGGLSGEESIKIY [UBP6] | 2.32 ± 0.13 | 2.47 ± 0.1 | 2.36 ± 0.093 | 2.67 ± 0.07
KYQKALHYLKKFKHIDD [SRP72] | 2.04 ± 0.1 | 2.96 ± 0.12 | 2.57 ± 0.17 | 2.31 ± 0.14
KYREGQVLFQGLIYSFN [POP1] | 2.46 ± 0.12 | 2.11 ± 0.081 | 2.46 ± 0.065 | 2.42 ± 0.11
KYRPETAAEKKERLTKE [RPL8A] | 3.08 ± 0.081 | 2.76 ± 0.076 | 3.12 ± 0.056 | 3.01 ± 0.067
LAAPQLVQMYIGEGAKL [RPT5] | – | – | 2.48 ± 0.26 | –
LADDLITKMLASDESLL [RPN2] | 1.94 ± 0.11 | 2.29 ± 0.14 | 1.86 ± 0.14 | –
LAEIKKTPLLKQYLSAS [RPL6B] | 1.54 ± 0.038 | 1.55 ± 0.049 | 1.24 ± 0.094 | 1.51 ± 0.036
LAFAKLVHSEYLINGKR [SRP68] | 2.18 ± 0.11 | 2.5 ± 0.056 | 2.15 ± 0.082 | 2.53 ± 0.034
LAFKKNEMLLKRVTKVK [MTW1] | 1.77 ± 0.065 | 2.03 ± 0.052 | 2.31 ± 0.12 | 2.03 ± 0.035
LAGMDVEDALDKDSTKE [FAS2] | 3.43 ± 0.27 | 3.72 ± 0.19 | – | –

Sequence | protein stability index (doa10∆) | protein stability index (pdr5∆) | protein stability index (san1∆) | protein stability index (ubr1∆)
LAIDNMYILGMCVSKGN [YCG1] | 2.19 ± 0.069 | 2.02 ± 0.061 | 2.27 ± 0.089 | 2.42 ± 0.057
LAKYRDAGKIDKHLYHV [RPL19A] | 3.3 ± 0.18 | 3.39 ± 0.15 | 1.27 ± 0.28 | 3.61 ± 0.095
LALENGEITKTENEKFI [NUT1] | 3.28 ± 0.15 | 3.45 ± 0.11 | 3.44 ± 0.066 | 3.3 ± 0.14
LALMTAHSLSPKDYIKK [CDC53] | 3.1 ± 0.06 | 3.03 ± 0.059 | 3.25 ± 0.04 | 3.15 ± 0.052
LAMEAILNELEVFIGRV [YJR042W/NUP85] | 2.59 ± 0.12 | 2.93 ± 0.14 | 2.76 ± 0.15 | 2.51 ± 0.06
LANWFLEVYASGNPNAT [YML031W/NDC1] | 2.03 ± 0.055 | 2.17 ± 0.046 | 2.37 ± 0.075 | 1.69 ± 0.045
LAQTLKLWRKIARLYSC [RRI2] | 1.2 ± 0.07 | 1.21 ± 0.058 | 1.34 ± 0.096 | 1.26 ± 0.053
LARACAAQTNATFLKLA [RPT5] | 2.76 ± 0.13 | 2.93 ± 0.089 | 2.93 ± 0.099 | 2.6 ± 0.27
LASEVGDPALVYKFMSL [ECM29] | 2.32 ± 0.069 | 2.4 ± 0.067 | 2.34 ± 0.093 | 2.05 ± 0.034
LATYCPRVQGFYVPQAR [GRR1] | 2.44 ± 0.078 | 2.4 ± 0.069 | 2.03 ± 0.09 | 3 ± 0.049
LAVLALVIVKKGEQELE [RPS6A] | 1.61 ± 0.038 | 1.56 ± 0.045 | 2 ± 0.072 | 2.54 ± 0.05
LAYRNYWTQYLGLFIHK [YJL039C/NUP192] | 1.94 ± 0.057 | 1.56 ± 0.037 | 1.9 ± 0.055 | 2.02 ± 0.039
LCKTKMVCETDVPSEDD [RPO21] | 2.99 ± 0.071 | 3 ± 0.093 | 3.25 ± 0.074 | 2.52 ± 0.067
LDALTRHIKSKHEDLSL [RPN4] | 2.54 ± 0.062 | 2.08 ± 0.068 | 1.57 ± 0.089 | 2.61 ± 0.059
LDDPEAVSKDPLLTKRK [DIS3] | 2.9 ± 0.11 | 3.44 ± 0.1 | 3.34 ± 0.094 | 3.1 ± 0.059
LDDTTIPVGLMAQENSM [MCD1] | 1.5 ± 0.071 | 1.84 ± 0.093 | 1.56 ± 0.17 | 1.87 ± 0.078
LDIGLQRTTTGARVFGA [RPL5] | 1.35 ± 0.073 | 1.29 ± 0.096 | 1.31 ± 0.13 | 1.12 ± 0.071
LDIKRVGSENVECTISI [SNF12] | 2.27 ± 0.067 | 2.78 ± 0.066 | 2.56 ± 0.056 | 2.81 ± 0.065
LDKDSSQSSAAAGASVD [RPN6] | 3.47 ± 0.11 | 3.42 ± 0.078 | 3.02 ± 0.075 | 3.2 ± 0.086
LDNSKMDYHFIFSYLQF [RGR1] | 2.45 ± 0.061 | 1.72 ± 0.056 | 1.89 ± 0.047 | 1.8 ± 0.065
LDSLMKTTRLLLIIRSL [YJL039C/NUP192] | 1.63 ± 0.044 | 1.39 ± 0.039 | 1.32 ± 0.077 | 1.27 ± 0.04
LDSNNNNSNSNNNDNNN [SWI1] | 2.65 ± 0.035 | 2.74 ± 0.039 | 2.79 ± 0.028 | 2.71 ± 0.029
LDTYRERSKQLNEKFQE [SMC2] | – | – | 3.37 ± 0.12 | –
LEACIVRIMKAKRNLPH [CDC53] | 1.5 ± 0.087 | 1.61 ± 0.059 | 1.3 ± 0.13 | 1.21 ± 0.045
LEAKRKVSSAEYYAKKR [RPL16A] | 3.06 ± 0.14 | 3.3 ± 0.11 | 2.86 ± 0.11 | 3.35 ± 0.09
LEALRQNYRLDGRSFDQ [RRP45] | 2.43 ± 0.11 | 1.97 ± 0.12 | 1.61 ± 0.14 | 2.81 ± 0.086

Sequence | protein stability index (doa10∆) | protein stability index (pdr5∆) | protein stability index (san1∆) | protein stability index (ubr1∆)
LECQLFPQGLNIVMDSK [SSN8] | 1.74 ± 0.2 | – | – | 2.46 ± 0.19
LEDDSLLSYPIKLDRWL [RPN12] | 3.12 ± 0.072 | 2.87 ± 0.057 | 2.99 ± 0.072 | 2.78 ± 0.063
LEDFENFKGLAKEKERM [YIL149C/MLP2] | 3.41 ± 0.075 | 3.51 ± 0.085 | 3.42 ± 0.054 | 3.35 ± 0.083
LEDLFSYRNGMASYMLN [YJR042W/NUP85] | 1.6 ± 0.071 | 1.25 ± 0.15 | 1.89 ± 0.13 | 2.42 ± 0.11
LEEEFVSNSEILKPFEK [RPT2] | 2.85 ± 0.074 | 2.88 ± 0.054 | 3.05 ± 0.073 | 2.51 ± 0.14
LEEKILAKKTHKQELQD [SMC4] | 2.95 ± 0.093 | 3.21 ± 0.074 | 2.88 ± 0.072 | 2.85 ± 0.073
LEEQQQLEDESSRLEFV [YML103C/NUP188] | 3.43 ± 0.084 | 3.3 ± 0.086 | 3.39 ± 0.06 | 3.46 ± 0.08
LEGETDPLRIAMKELAE [RPO26] | 3.49 ± 0.21 | 3.34 ± 0.057 | 3.27 ± 0.1 | 3.36 ± 0.15
LEGITTTIDSLNAELES [SMC3] | 1.57 ± 0.088 | 1.77 ± 0.15 | 2.27 ± 0.17 | 3.14 ± 0.1
LEHDVEYRPFSKKVLEC [DIS3] | 3.4 ± 0.18 | 3.6 ± 0.1 | 3.48 ± 0.07 | 3.37 ± 0.073
LEIAKDFQPTELFDILS [IRR1] | 3.07 ± 0.13 | 2.33 ± 0.11 | 2.8 ± 0.079 | 3.08 ± 0.086
LEIASSIDCLLILILVI [SWI1] | 1.98 ± 0.07 | 2.24 ± 0.046 | 2.34 ± 0.074 | 1.71 ± 0.035
LEKIHSIEVQSLPEFFT [SWI3] | 2.69 ± 0.074 | 2.53 ± 0.073 | 2.43 ± 0.12 | 2.52 ± 0.069
LEKKGFSEVYEYNRLKV [LIN1] | 3.34 ± 0.16 | 3.18 ± 0.25 | 3.28 ± 0.1 | 3.22 ± 0.12
LERFNKRADISKRRITE [SMC1] | 3.14 ± 0.14 | 2.7 ± 0.074 | 2.96 ± 0.17 | 2.99 ± 0.13
LESFQAVYNKLTGKQIV [RPS7A] | 1.68 ± 0.055 | 1.32 ± 0.044 | 1.28 ± 0.098 | 1.53 ± 0.052
LESSITDAGVLALKLEL [YJL039C/NUP192] | 1.57 ± 0.06 | 1.48 ± 0.061 | 1.3 ± 0.13 | 1.57 ± 0.085
LETILEEFRNLAALNVW [SSN2] | 2.9 ± 0.11 | 2.98 ± 0.1 | 2.52 ± 0.11 | 3.32 ± 0.057
LETLFNRWHSESWANQL [FAS2] | 2.81 ± 0.055 | 2.89 ± 0.076 | 2.87 ± 0.055 | 3.02 ± 0.056
LFGNNNTNNINNSSSGM [YGL172W/NUP49] | 3.38 ± 0.16 | 3.42 ± 0.14 | 3 ± 0.12 | 3.13 ± 0.13
LFHSCTRIQYVDFACCT [GRR1] | 2.56 ± 0.12 | 2.44 ± 0.067 | 2.2 ± 0.075 | 2.21 ± 0.063
LFKTLFKKLTKDIFRYM [RPB2] | 1.94 ± 0.061 | 1.53 ± 0.059 | 1.33 ± 0.13 | 1.66 ± 0.055
LFNESFIMASVGKYDKA [SRP72] | 3 ± 0.29 | 2.85 ± 0.27 | – | –
LFRAIYLYCLDNNITEM [YCG1] | 2.08 ± 0.052 | 2.09 ± 0.044 | 2.1 ± 0.061 | 2.38 ± 0.05
LFYFDSSFRPCPLSQQF [BRR2] | 2.47 ± 0.072 | 1.89 ± 0.051 | 2.68 ± 0.061 | 2.41 ± 0.033
LGDKELWPVAIGLIALS [YJR042W/NUP85] | 1.57 ± 0.17 | 1.65 ± 0.15 | 1.64 ± 0.27 | 1.73 ± 0.16
